Consider five molecules from patent publication US20260234242A1 (HAINAN SIMCERE ZAIMING PHARMACEUTICAL, published 2026).

In assay [1] the target is T1, his-tagged human CDH6 extracellular region protein (hCDH6 ECD-his) (human, UniProt P55285 19-615).
T1 construct: also called Human CDH6-his; hCDH6-his; not shown: his tag
T1 sequence: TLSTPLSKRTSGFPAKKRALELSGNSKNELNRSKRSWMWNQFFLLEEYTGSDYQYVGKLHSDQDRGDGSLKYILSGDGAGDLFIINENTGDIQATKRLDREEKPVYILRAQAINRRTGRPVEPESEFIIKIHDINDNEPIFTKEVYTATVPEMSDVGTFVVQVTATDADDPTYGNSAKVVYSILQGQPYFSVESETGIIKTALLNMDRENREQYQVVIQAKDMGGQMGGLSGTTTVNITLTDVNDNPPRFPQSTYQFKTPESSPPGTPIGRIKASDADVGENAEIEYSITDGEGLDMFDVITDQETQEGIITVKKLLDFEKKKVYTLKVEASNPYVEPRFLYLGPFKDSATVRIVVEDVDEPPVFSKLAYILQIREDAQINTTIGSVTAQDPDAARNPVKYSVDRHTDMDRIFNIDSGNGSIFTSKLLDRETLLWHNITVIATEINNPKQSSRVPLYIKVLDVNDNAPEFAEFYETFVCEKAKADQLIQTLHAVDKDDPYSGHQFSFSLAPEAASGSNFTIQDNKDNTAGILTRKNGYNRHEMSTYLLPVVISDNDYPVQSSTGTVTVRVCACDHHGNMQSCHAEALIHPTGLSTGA
The assay can be described thus: ELISA, coated antigen; ELISA, hCDH6 ECD-his coated at 1 µg/mL, antibody in solution; chimeric antibody run (Table 5). As for the experimental part: Human CDH6 protein (hCDH6 ECD-his, conventionally synthesized), monkey CDH6 protein (cynoCDH6 ECD-his, conventionally synthesized; the cynoCDH6 ECD sequence was derived from Uniprot #A0A2K5TW62 (19-615)), and murine CDH6 protein (mCDH6 ECD-his, conventionally synthesized; the mCDH6 ECD sequence was derived from Uniprot #P97326 (19-615)) were diluted with PBS to a final concentration of 1 μg/mL, and added to a 96-well ELISA plate at 100 μL/well. The plate was incubated at 4° C. overnight. The next day, the plate was washed 3 times with a plate washing solution (PBS+0.01% (v/v) Tween 20), and a blocking buffer (PBS+0.01% (v/v) Tween 20+2% (w/w) BSA) was added for blocking at room temperature for 2 h. The blocking buffer was discarded, and the plate was washed 3 times. The chimeric antibodies were diluted with 1% BSA+PBS (purchased from Cytiva, Cat. No. SH30264.01) and added to the 96-well plate at 50 μL/well. After incubation at 37° C. for 2 h, the plate was washed 3 times with a plate washing solution. […] The plate was incubated at 37° C. for 1 h and then washed 5 times with a plate washing solution. […] OD450 nm values were read using a microplate reader (Biotek). Analysis was performed by the GraphPad Prism software, data were fitted, and EC50 values were calculated. […]
In general terms: In an ELISA, binding on a coated surface is turned into a signal by an enzyme label.

Assay [2] concerns the target T1, his-tagged human CDH6 extracellular …. Put plainly: ELISA, coated antigen. How it is done: Human CDH6 protein (hCDH6 ECD-his, conventionally synthesized), monkey CDH6 protein (cynoCDH6 ECD-his, conventionally synthesized; the cynoCDH6 ECD sequence was derived from Uniprot #A0A2K5TW62 (19-615)), and murine CDH6 protein (mCDH6 ECD-his, conventionally synthesized; the mCDH6 ECD sequence was derived from Uniprot #P97326 (19-615)) were diluted with PBS to a final concentration of 1 μg/mL, and added to a 96-well ELISA plate at 100 μL/well. The plate was incubated at 4° C. overnight. The next day, the plate was washed 3 times with a plate washing solution (PBS+0.01% (v/v) Tween 20), and a blocking buffer (PBS+0.01% (v/v) Tween 20+2% (w/w) BSA) was added for blocking at room temperature for 2 h. The blocking buffer was discarded, and the plate was washed 3 times. The chimeric antibodies were diluted with 1% BSA+PBS (purchased from Cytiva, Cat. No. SH30264.01) and added to the 96-well plate at 50 μL/well. After incubation at 37° C. for 2 h, the plate was washed 3 times with a plate washing solution. […] The plate was incubated at 37° C. for 1 h and then washed 5 times with a plate washing solution. A TMB substrate (purchased from Seracare, Cat. No. 5120-0077) was added at 50 μL/well and incubated at room temperature for 10 min, then a stop solution (1.0 N HCl) was added at 50 μL/well. OD450 nm values were read using a microplate reader (Biotek). Analysis was performed by the GraphPad Prism software, data were fitted, and EC50 values were calculated. The chimeric antibodies tested all had strong binding to the human CDH6 protein, the monkey CDH6 protein, and the murine CDH6 protein.
According to the above sequences, heavy chain (HC) and light chain (LC) plasmids were constructed (the nucleic acid sequences encoding the VH and VL of the antibodies were recombined into an expression vector carrying a signal peptide (SEQ ID NO: 132, […]) and a heavy chain constant region/light chain constant region sequence to obtain recombinant plasmids expressing VH—CH1-Fc/VL-CL).

Assay [3] deals with T2, human CDH6 on tumor cells (OVCAR3 cells, PA-1 cells) (human, UniProt P55285 54-790).
T2 sequence: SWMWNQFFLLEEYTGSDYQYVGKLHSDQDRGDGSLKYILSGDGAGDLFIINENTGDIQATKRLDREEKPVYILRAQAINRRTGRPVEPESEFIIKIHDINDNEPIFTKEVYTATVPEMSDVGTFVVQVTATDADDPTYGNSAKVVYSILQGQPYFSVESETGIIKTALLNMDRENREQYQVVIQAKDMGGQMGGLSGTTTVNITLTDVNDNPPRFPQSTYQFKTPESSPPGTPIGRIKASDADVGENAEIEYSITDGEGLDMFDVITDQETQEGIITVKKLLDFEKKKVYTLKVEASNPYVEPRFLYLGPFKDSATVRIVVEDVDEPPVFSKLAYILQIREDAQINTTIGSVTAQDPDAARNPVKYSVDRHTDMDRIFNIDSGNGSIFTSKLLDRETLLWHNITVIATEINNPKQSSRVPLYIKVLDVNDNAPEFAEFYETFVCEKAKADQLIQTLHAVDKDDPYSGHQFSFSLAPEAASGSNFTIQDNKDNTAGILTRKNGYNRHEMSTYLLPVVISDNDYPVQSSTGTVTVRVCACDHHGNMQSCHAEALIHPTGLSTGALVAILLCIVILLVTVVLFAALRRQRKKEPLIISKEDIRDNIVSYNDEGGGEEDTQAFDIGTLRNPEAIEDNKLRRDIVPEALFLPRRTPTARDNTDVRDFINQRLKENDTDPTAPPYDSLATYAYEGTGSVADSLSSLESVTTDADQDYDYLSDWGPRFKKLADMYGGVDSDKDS
Put plainly: FACS, OVCAR3 cells. Background: A flow cytometer gives signals particle by particle.

B1: CHI-CDH6-14 (antibody, human IgG1, kappa, V domains shown)
VH: QIQLQQSGPELVKPGTSVKISCKASGYTFTDNYINWVRQRPGQGLEWIGWIYPGTGNSYYNEKFKGKATLTVDTSSSTAYMQFSSLTSEDSAVYLCASSYGDSFDYWGQGTTLTVSS
VL: DIQMTQTTSSLSASLGNRVTISCRASQDIRNYLNWYQQKPDGTFKLLISYTSRLHSGVPSRFSGSGSGTDYSLTVSNLEPEDIATYYCQQYSQLPWTFGGGSRLEIKR
notes: also called CHI-hCDH6-14; CH1-CDH6-14
For orientation: EC50 means the concentration at which the effect is half-maximal. Higher therefore signals a need for much substance. B1: the EC50 in assay [1] came to 0.044 nM.

B2: hCDH6-6-H2L2 (antibody, V domains shown)
VH: EVQLVQSGAEVKKPGASVKVSCKASGYTFTDYYMAWVRQAPGQGLEWMGYIFPNSGGTDYSQKFKGRVTLTVDKSTSTVYMELSSLRSEDTAVYYCARELGADYGDYYAMDHWGQGTTVTVSS
VL: DIQMTQSPSSLSASVGDRVTITCRASENIDSYLAWYQQKPGKSPKLLVYSATLLADGVPSRFSGSGSGTDYTLTISSLQPEDFATYYCQHYYRTPPTFGQGTKLEIK
notes: Humanized
As to B2, in assay [2], the EC50 was determined as 0.026 nM and the “Max OD450” value worked out at 1.97 OD450.

B3: hCDH6-1-H2L3 (antibody, V domains shown)
VH: EVQLVQSGAEVKKPGSSVKVSCKASGYTFTNYWMHWVRQAPGQGLEWMGDIDPSHSETHYTQKFKDRVTITVDKSTSTAYMELSSLRSEDTAVYYCARGDLGRFDYWGQGTTVTVSS
VL: DIQMTQSPSSLSASVGDRVTITCRASESVSIHGTHLMHWYQQKPGKPPKLLIYAASNLESGVPSRFSGSGSETDFTFTISSLQPEDIATYYCQQSFEDPWTFGGGTKVEIK
notes: Humanized
For the molecule B3, in assay [3], the half-maximal effective concentration (EC50) turned out to be 0.17 nM and the “Max MFI” value turned out to be 14800 MFI.

B4: CHI-CDH6-6 (antibody, human IgG1, kappa, V domains shown)
VH: EVQLQQSGPELVKPGDSVKMSCKASGYTFTDYYMAWVRQSHRKSLEWIGYIFPNSGGTDYSQKFKGKATLTVDKSSSTVYMELHSLTSEDSAVYYCARELGADYGDYYAMDHWGQGTSVSVSS
VL: DIQMTQSPASLSASVGETVTITCRASENIDSYLAWYQQKQGKSPQLLVYSATLLADGVPSRFSGSGSGTQYSLKINSLKSEDVARYYCQHYYRTPPTFGSGTKLEIKR
notes: also called CHI-hCDH6-6; chimeric antibody of murine CDH6-6
Consider B4, for which, in assay [2], the EC50 came out at 0.028 nM and the “Max OD450” value stood at 2.02 OD450.

B5: CHI-CDH6-1 (antibody, human IgG1, kappa, V domains shown)
VH: QVQLQQPGAELVRPGSSVKLSCKASGYTFTNYWMHWVKQRPIEGLEWIGDIDPSHSETHYTQKFKDKATLTVDKSSSTAYMQLSSLTSEDSAVYYCARGDLGRFDYWGQGTTLTVSS
VL: DIVLTQSPASLAVSLGQRATISCRASESVSIHGTHLMHWYQQKSGQPPKLLIYAASNLESGVPARFSGSGSETDFTFNIHPVEEEDAATYFCQQSFEDPWTFGGGTKLEIKR
notes: also called CHI-hCDH6-1; CH1-CDH6-1
B5: in assay [3], it took 0.194 nM to reach a half-maximal effect (EC50) and the “Max MFI” value came out at 14900 MFI.
